± gives the uncertainty stated by the source.

The values below come from the supplement of paper PMC12042874.

The series can be described thus: amyloid nucleation score (Sup35N fusion, yeast selection) (log enrichment); library NNK2; higher = more nucleation; inactive = no reads after selection. A digest of the protocol:
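Nucleation score: DiMSum log enrichment of output over input reads, centred on the mode score of non-aggregating sequences. Only sequences with at least 100 input reads were kept. Reads came from Illumina sequencing of plasmid inserts before and after 7 days of growth at 30°C without adenine and uracil, in psi-negative yeast expressing Sup35N fused to peptides of 20 random codons after 24 hours of induction with 100 μM copper sulfate.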

For the substance FNGSYASILKTSNRDTFDAL, the amyloid nucleation score came out at 0.61 ± 0.15. For the substance FSLPFC, the amyloid nucleation score came to 0.246 ± 0.49.

Consider SYYISHYMSVWISLTDSGCY, for which the amyloid nucleation score was -0.14 ± 0.56. Substance VDARALDMIVVRDQTFRCTM gave an amyloid nucleation score of 1.24 ± 0.33. The substance FRFFCHISMNLGTLWRLDCL returned an amyloid nucleation score of -0.405 ± 0.44. ILKSRSLVRFHFFSIGASCA showed an amyloid nucleation score of 0.427 ± 0.41. In the case of GRSGVLLQRGGFVKNSRCEK, the amyloid nucleation score came to 0.026 ± 1.1. To ESFLDINGVLRLRRLYVQSQ belongs 0.587 ± 0.56; to DNSHWI, 0.903 ± 0.47; to MFDFCPIMTLF, -0.771 ± 1.1.

With VRMNPITAGLCVQCLHTQRF, the amyloid nucleation score was -0.654 ± 1. DFVPNGCNCINSGWDFRQVD yielded an amyloid nucleation score of -1.88 ± 0.64. Consider VKFAGWTCSL, for which the amyloid nucleation score is -0.314 ± 0.62. Substance KLHRSESVHVICTVCS returned an amyloid nucleation score of 1.17 ± 0.3. With IYVRLLDSDTSYWVQFVFLQ, the amyloid nucleation score result was “inactive”. For MTYYRAYFAYLWVVRLWL, the amyloid nucleation score amounted to 0.029 ± 0.32. Turning to GRLYHGVVTCSGRNGINRGS, the amyloid nucleation score turned out to be 2.92 ± 0.19.

In turn, DWCTAAGDEMDMVVGGKVPN had an amyloid nucleation score of 0.427 ± 0.34. To SARPELCMPIIRLCGSREDQ belongs -0.056 ± 0.22.

For HGDVIRCRTKIIIAVFGMFM, the amyloid nucleation score turned out to be 6.21 ± 0.076.

As for VWTSIYDFSLWADYGQK, the amyloid nucleation score was -1.58 ± 1.1.

For the substance CTCFGRVRLQKSIWGKRLIH, the amyloid nucleation score is -0.383 ± 0.56.

With LDLSDHWACQIIGVL, the amyloid nucleation score came to 0.394 ± 0.43. As for FSACFGCFVLAKSNHY, the amyloid nucleation score amounted to 0.955 ± 0.25. To LTCFSPLVRLEGA belongs -0.212 ± 0.49; to AMERDYFLTVTCDRVKYLGE, 1.01 ± 0.4. The substance DSNTPHASMRYISFKRFFFV came in with an amyloid nucleation score of -0.107 ± 1. Substance ASAYSPASRRSTDMADALV came in with an amyloid nucleation score of 0.496 ± 0.31.

Consider DSGCKFAAPCSVYPLFLFDM, for which the amyloid nucleation score is -0.788 ± 1.1.

With RSHATFRSSSLIPGVEV, the amyloid nucleation score is 0.409 ± 0.23. LTRCMCPLGDIMRHKEKPEM: the amyloid nucleation score is -1.25 ± 1.1.

For the substance VEFYCSTERCLYDFTNG, the amyloid nucleation score is -2.3 ± 0.75. SFKSDSFTDYYLIDLAITRG: the amyloid nucleation score is -0.046 ± 1.

ALPAFELGEFNNADHSHDDN yielded an amyloid nucleation score of -0.464 ± 1.1. With VSDNGFFNRYNMTNCRIHGV the figure was 0.449 ± 0.57. Regarding VNVCTYTWLHVINERFTFQW, the amyloid nucleation score worked out at 6.192 ± 0.045.

For GFYGLTVSSTEYKWSMIQIR, the amyloid nucleation score amounted to 1.88 ± 0.077.

As for YLTNLNNCADKSNCW, the amyloid nucleation score entry was “inactive”. MPGQFHFVMNFRINRNYIRS showed an amyloid nucleation score of 5.92 ± 0.067. Turning to PSMQVVKRVINFG, the amyloid nucleation score entry was “inactive”. With FSLQCPFSERKIYRRLCSPS, the amyloid nucleation score result is “inactive”.

VNYVDGWV gave an amyloid nucleation score of 1.45 ± 0.34. With KITAGSGVL the figure was 0.904 ± 0.81; with YLTLTYPLLCLALNNLSVVL, 2.38 ± 0.15; with YTNSQYSPLPQQSNLKVSNI, -0.716 ± 0.56. GCTSTRRLVYC returned an amyloid nucleation score of -0.622 ± 0.29. Turning to WDTLARYSGIQLVFE, the amyloid nucleation score is -0.974 ± 0.55. As for FYLYNFMCEVLYMESRRVMS, the amyloid nucleation score result was “inactive”. KPHRIENGSTREDEEG registered an amyloid nucleation score of 0.747 ± 0.31. Consider LKEDF, for which the amyloid nucleation score entry is “inactive”. Regarding NVDRRQGETWSNPYDLMRRL, the amyloid nucleation score was determined as 0.291 ± 0.19.

The substance YTRGCSFHIRVSSLCGQYNI registered an amyloid nucleation score of 1.65 ± 0.18. With FNVFFAS the figure was 5.97 ± 0.055; with FISTGRRQTFQTRTRSNLWV, 0.195 ± 0.37. Turning to LVLNKNCLKVI, the amyloid nucleation score is -0.426 ± 0.6.

In the case of GGTLHWLAMDTNMVNMACIG, the amyloid nucleation score entry was “inactive”.

Substance SILIFTLTCSDRNW yielded an amyloid nucleation score of -0.245 ± 0.76. MPQSSRFCTNSFGNRHRRSW showed an amyloid nucleation score of -0.343 ± 1.1. To DITLFYSDTSCRFSVPCSVD belongs 0.598 ± 0.46; to NLECLYKLFPDFASLIRLCV, 0.185 ± 0.8. SFDGGRDGRLMYIGRMLEEL gave an amyloid nucleation score of -0.067 ± 0.62. Turning to NVRTYCGFKSSNIRRWVSRH, the amyloid nucleation score entry is “inactive”. For QSGFEVSCLSDMDSCYRSRN, the amyloid nucleation score came out at 0.509 ± 0.31. In turn, GCCWEKSASRSAETYWSGRA displayed an amyloid nucleation score of 3.06 ± 0.14. YRLIDVYWS returned an amyloid nucleation score of -0.632 ± 1.1. To AMRWFGKYSRFWNGYIRNWI belongs -0.193 ± 0.76; to LAHHMF, 0.429 ± 0.8. On to REALDHWVDRVTVRWVRICI, for which the amyloid nucleation score is -0.474 ± 0.35.

As for LKCVHCYIRHLNFYFILPLC, the amyloid nucleation score entry is “inactive”.

MAGLTSWCGPHHTVWLTWNG: the amyloid nucleation score was found to be 0.939 ± 0.3. Take FYHISEVLVVPLRLELSVQL: the amyloid nucleation score was found to be 5.68 ± 0.07. As for GYYRFLSSLLELTV, the amyloid nucleation score is -0.628 ± 0.76. With CNRCIQRMRASMTDSVFSGV the figure was -1.35 ± 0.49; with IVVSRMETSIKTCYFVMFHS, -0.421 ± 0.38.

Turning to MQKRRDSKYEYLVFGCDVCM, the amyloid nucleation score was -1.13 ± 1.1. On to LYTMNLHYFLLFEESVS, for which the amyloid nucleation score was -0.835 ± 0.28. GDPLS came in with an amyloid nucleation score of 0.162 ± 0.28. With FDWMI the figure was 0.926 ± 0.28; with MATDDIN, -0.359 ± 0.79. Consider LCPYR, for which the amyloid nucleation score was -0.776 ± 1.1. The substance HAYFFLRDRVRCSIFVIVTT yielded an amyloid nucleation score of -0.453 ± 0.78. In the case of GCKNR, the amyloid nucleation score is 0.226 ± 0.51.

For the substance LTRLFYPWK, the amyloid nucleation score was -0.14 ± 1.1. For the substance SSIGKGFSNSYGHAYCKHTW, the amyloid nucleation score was -0.124 ± 0.76. To YIIDRKEHFLSKCY belongs -0.738 ± 0.55; to LLLHWRSWMRKCHVITCWSS, 0.436 ± 0.35; to EVMCDAKLAGCVTSRPWLSR, 0.925 ± 0.34.

With ASIPINHPHRVRLNTSYECI, the amyloid nucleation score was -0.657 ± 0.56. QCVVTVCDRL: the amyloid nucleation score stood at 1.73 ± 0.13. NMGIRRFKFYIVNA showed an amyloid nucleation score of -0.965 ± 0.78.

In turn, LWITTGNGGVPV displayed an amyloid nucleation score of -0.144 ± 0.45.

Regarding KRWIT, the amyloid nucleation score is -0.65 ± 0.55. Turning to HILRRINIWGGFPCMRVSKN, the amyloid nucleation score is -0.755 ± 1.1. FPGPRRLSWFPGVQRVSMMI came in with an amyloid nucleation score of -0.243 ± 0.79. Take YSYEHTRWTSLGGWHLR: the amyloid nucleation score was 4.66 ± 0.069. IMYPLRNLAQDFLGDSVSYL: the amyloid nucleation score is -1.07 ± 0.62. In the case of GVNSLVERFNLWYVLGERTF, the amyloid nucleation score is -0.35 ± 0.33. The substance AQGSRDSNRRVEASACY had an amyloid nucleation score of -0.09 ± 0.63. LRFPRGLNGNDPGSIAS had an amyloid nucleation score of -0.085 ± 0.79. To LFEFSFITPYGV belongs -0.531 ± 0.44. Substance KSEAGYA yielded an amyloid nucleation score of 0.658 ± 0.51. With PALTIEIMSYGASQHGFSLV the figure was 0.367 ± 0.28. To EYSTFPRRSDRSEIHFSINL belongs 3.47 ± 0.12. With VLRYLDFDYRLELFIYVMHR the figure was -1.48 ± 1.1; with TFTGLFKKLI, “inactive”. Turning to IDNEMYFAHGIRGDSLL, the amyloid nucleation score result is “inactive”.

TYGGEV gave an amyloid nucleation score of 0.251 ± 0.31. RNSSL came in with an amyloid nucleation score of 0.495 ± 0.48.

As for SFFNRESGIWWRGSSWFVLV, the amyloid nucleation score is -0.711 ± 0.48.

Substance DMNEDVGLGNKFC showed an amyloid nucleation score of 0.119 ± 0.54.

In turn, FWYENP gave an amyloid nucleation score of 2.14 ± 0.16. CWTEY gave an amyloid nucleation score of -0.589 ± 0.3. NYSGYLLNASVRRTMRRRVF: the amyloid nucleation score was -1.18 ± 0.47. LVAIDSAFCTLGMPSADPVS showed an amyloid nucleation score of -0.097 ± 0.25. In turn, NAKCNSTGKTCQFGCQYP came in with an amyloid nucleation score of 1.51 ± 0.39. SKLMQVRRGVLSGYLSESDE: the amyloid nucleation score is -0.149 ± 0.55. To ELPGPHSGVTPPACEWSTHP belongs 0.422 ± 0.24. Turning to IYNMVSCIIDLCYDKTRHSR, the amyloid nucleation score is 3.85 ± 0.12. In turn, VVSGTLKKMGVFGTSAIISE showed an amyloid nucleation score of 0.494 ± 0.8. Substance ILGSARYIVCGQVSEMRSAG displayed an amyloid nucleation score of 0.367 ± 0.49. In the case of EILRSGMSCIWVLYDFIGI, the amyloid nucleation score is -0.437 ± 1. With FFSDVSLVQYHLTLRFLMAY, the amyloid nucleation score was -1.69 ± 0.62. The substance VGSLYICDLAPGKHKYCSVV displayed an amyloid nucleation score of 0.266 ± 0.56. As for RGREL, the amyloid nucleation score is -1.66 ± 0.54. On to WFCVVVMFGRRVDNLDKLVF, for which the amyloid nucleation score was -1.33 ± 0.54. With FAPRSKPLRSLFEGLLF the figure was 0.495 ± 0.57; with SLSVAWKWGGRSDN, 6.213 ± 0.06.

In turn, LFEMC came in with an amyloid nucleation score of 0.443 ± 0.26. Substance WNFFLGMAIMGLRRSCL gave an amyloid nucleation score of 4.1 ± 0.068. Take LHSYWH: the amyloid nucleation score came to 0.121 ± 0.2. In turn, SLKRKGLVHTPCIFRVRCLT showed an amyloid nucleation score of 0.554 ± 0.81. To YQMVTCWAYDSQDIGSWCAG belongs -0.012 ± 1.1. Substance CQMYHKCALVLLAGHQLRRR showed an amyloid nucleation score of 1.19 ± 0.33. Substance CVIGADALASG yielded an amyloid nucleation score of 0.5 ± 0.38.

For the substance KYMRLSSPAGSAVPLWTLYL, the amyloid nucleation score was 0.148 ± 1. With YIGRMVV, the amyloid nucleation score was found to be 0.306 ± 0.65.

The substance FLGWPGIRQCLLFVANNRGR registered an amyloid nucleation score of -0.448 ± 0.76.

Substance FMFRQCSQFMMGYYLLNG displayed an amyloid nucleation score of 0.313 ± 0.46. As to VIFSGFFYISPTADPHDSFI, the amyloid nucleation score result is “inactive”. To NFWMVPLIA belongs -0.541 ± 0.79. For the substance LDVTHN, the amyloid nucleation score stood at 0.6 ± 0.35.
